The sequences below were run on Escherichia coli TOP10 (assay: shrunken log2 fold change of peptide-encoding DNA abundance (4.5 h post-induction vs induction); higher = less antimicrobial activity (less host growth inhibition)). Details: time post-induction: 4.5 h; library: site-saturation at positions 5, 18, 19, 20.
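Also: peptides expressed intracellularly from a pBAD plasmid library in pooled LB shake-flask culture, induced with 0.3% L-arabinose, DNA abundance read by NGS, three biological replicates, DESeq2 with apeglm shrinkage.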

| Sequence | shrunken log2 fold change |
| --- | --- |
| RRIRIRPPRLPRPRPRPHVRPRP | 0.031 |
| RRIRIRPPRLPRPRPRPHYDPRP | -0.801 |
| RRIRIRPPRLPRPRPRPHYYPRP | -0.413 |
| RRIRIRPPRLPRPRPRPIAHPRP | -0.358 |
| RRIRIRPPRLPRPRPRPICVPRP | -0.181 |
| RRIRIRPPRLPRPRPRPIECPRP | -0.314 |
| RRIRIRPPRLPRPRPRPIFMPRP | -0.376 |
| RRIRIRPPRLPRPRPRPIFSPRP | -0.181 |
| RRIRIRPPRLPRPRPRPIGFPRP | 0.0766 |
| RRIRIRPPRLPRPRPRPIGLPRP | -0.242 |
| RRIRIRPPRLPRPRPRPIHKPRP | -0.782 |
| RRIRIRPPRLPRPRPRPIHYPRP | -0.791 |
| RRIRIRPPRLPRPRPRPIICPRP | -0.775 |
| RRIRIRPPRLPRPRPRPIIFPRP | -0.667 |
| RRIRIRPPRLPRPRPRPIIGPRP | -0.13 |
| RRIRIRPPRLPRPRPRPIKTPRP | -0.0553 |
| RRIRIRPPRLPRPRPRPILSPRP | -0.421 |
| RRIRIRPPRLPRPRPRPIMSPRP | 0.0262 |
| RRIRIRPPRLPRPRPRPINQPRP | -0.345 |
| RRIRIRPPRLPRPRPRPIPTPRP | -0.0342 |
| RRIRIRPPRLPRPRPRPIQHPRP | -0.468 |
| RRIRIRPPRLPRPRPRPIQPPRP | -0.044 |
| RRIRIRPPRLPRPRPRPIQSPRP | -0.0915 |
| RRIRIRPPRLPRPRPRPIRPPRP | -0.277 |
| RRIRIRPPRLPRPRPRPIRWPRP | 0.0124 |

| Sequence | shrunken log2 fold change |
| --- | --- |
| RRIRIRPPRLPRPRPRPITKPRP | -0.123 |
| RRIRIRPPRLPRPRPRPIVLPRP | -0.181 |
| RRIRIRPPRLPRPRPRPIWCPRP | -0.00146 |
| RRIRIRPPRLPRPRPRPIWKPRP | -0.0131 |
| RRIRIRPPRLPRPRPRPIWNPRP | -0.263 |
| RRIRIRPPRLPRPRPRPIYNPRP | -1.18 |
| RRIRIRPPRLPRPRPRPIYWPRP | -0.105 |
| RRIRIRPPRLPRPRPRPKACPRP | 0.0544 |
| RRIRIRPPRLPRPRPRPKCAPRP | 0.0106 |
| RRIRIRPPRLPRPRPRPKDWPRP | 0.299 |
| RRIRIRPPRLPRPRPRPKDYPRP | -0.603 |
| RRIRIRPPRLPRPRPRPKECPRP | 0.00902 |
| RRIRIRPPRLPRPRPRPKEQPRP | 0.0307 |
| RRIRIRPPRLPRPRPRPKFEPRP | -0.361 |
| RRIRIRPPRLPRPRPRPKGAPRP | 0.36 |
| RRIRIRPPRLPRPRPRPKHHPRP | -0.366 |
| RRIRIRPPRLPRPRPRPKIPPRP | -0.212 |
| RRIRIRPPRLPRPRPRPKKLPRP | -0.219 |
| RRIRIRPPRLPRPRPRPKMDPRP | 0.0209 |
| RRIRIRPPRLPRPRPRPKMHPRP | -0.299 |
| RRIRIRPPRLPRPRPRPKMKPRP | -0.457 |
| RRIRIRPPRLPRPRPRPKMMPRP | -0.596 |
| RRIRIRPPRLPRPRPRPKNAPRP | -0.107 |
| RRIRIRPPRLPRPRPRPKNDPRP | -0.867 |
| RRIRIRPPRLPRPRPRPKPSPRP | 0.128 |

| Sequence | shrunken log2 fold change |
| --- | --- |
| RRIRIRPPRLPRPRPRPKQQPRP | 0.0512 |
| RRIRIRPPRLPRPRPRPKSGPRP | -0.128 |
| RRIRIRPPRLPRPRPRPLCWPRP | -0.0614 |
| RRIRIRPPRLPRPRPRPLDTPRP | -0.142 |
| RRIRIRPPRLPRPRPRPLGYPRP | -0.303 |
| RRIRIRPPRLPRPRPRPLHMPRP | -0.571 |
| RRIRIRPPRLPRPRPRPLHTPRP | -0.456 |
| RRIRIRPPRLPRPRPRPLIEPRP | -0.475 |
| RRIRIRPPRLPRPRPRPLIKPRP | -0.756 |
| RRIRIRPPRLPRPRPRPLIPPRP | -0.692 |
| RRIRIRPPRLPRPRPRPLQDPRP | -0.31 |
| RRIRIRPPRLPRPRPRPLRMPRP | -0.04 |
| RRIRIRPPRLPRPRPRPLTEPRP | -0.044 |
| RRIRIRPPRLPRPRPRPLTRPRP | -0.265 |
| RRIRIRPPRLPRPRPRPLYVPRP | -1.06 |
| RRIRIRPPRLPRPRPRPMATPRP | -0.0167 |
| RRIRIRPPRLPRPRPRPMAVPRP | 0.142 |
| RRIRIRPPRLPRPRPRPMCCPRP | -0.212 |
| RRIRIRPPRLPRPRPRPMDCPRP | -0.115 |
| RRIRIRPPRLPRPRPRPMDEPRP | 0.00773 |
| RRIRIRPPRLPRPRPRPMDFPRP | 0.00128 |
| RRIRIRPPRLPRPRPRPMDHPRP | -0.0898 |
| RRIRIRPPRLPRPRPRPMFCPRP | -0.345 |
| RRIRIRPPRLPRPRPRPMFTPRP | -0.212 |
| RRIRIRPPRLPRPRPRPMHFPRP | -0.487 |

| Sequence | shrunken log2 fold change |
| --- | --- |
| RRIRIRPPRLPRPRPRPMKMPRP | -0.127 |
| RRIRIRPPRLPRPRPRPMKRPRP | 0.0451 |
| RRIRIRPPRLPRPRPRPMLAPRP | 0.0524 |
| RRIRIRPPRLPRPRPRPMLEPRP | 0.0741 |
| RRIRIRPPRLPRPRPRPMLPPRP | -0.0228 |
| RRIRIRPPRLPRPRPRPMNTPRP | -0.207 |
| RRIRIRPPRLPRPRPRPMNWPRP | -0.135 |
| RRIRIRPPRLPRPRPRPMPKPRP | -0.0638 |
| RRIRIRPPRLPRPRPRPMQPPRP | -0.0593 |
| RRIRIRPPRLPRPRPRPMQVPRP | 0.00763 |
| RRIRIRPPRLPRPRPRPMRVPRP | 0.109 |
| RRIRIRPPRLPRPRPRPMSGPRP | 0.174 |
| RRIRIRPPRLPRPRPRPMSQPRP | -0.119 |
| RRIRIRPPRLPRPRPRPMTTPRP | 0.0113 |
| RRIRIRPPRLPRPRPRPMVPPRP | 0.0231 |
| RRIRIRPPRLPRPRPRPMVQPRP | -0.0334 |
| RRIRIRPPRLPRPRPRPMVRPRP | -0.0105 |
| RRIRIRPPRLPRPRPRPMVSPRP | -0.044 |
| RRIRIRPPRLPRPRPRPMYWPRP | -0.291 |
| RRIRIRPPRLPRPRPRPNDLPRP | -0.16 |
| RRIRIRPPRLPRPRPRPNGFPRP | -0.114 |
| RRIRIRPPRLPRPRPRPNIPPRP | -0.818 |
| RRIRIRPPRLPRPRPRPNKNPRP | -0.701 |
| RRIRIRPPRLPRPRPRPNMHPRP | -0.805 |
| RRIRIRPPRLPRPRPRPNMLPRP | -1.18 |

| Sequence | shrunken log2 fold change |
| --- | --- |
| RRIRIRPPRLPRPRPRPNNNPRP | -0.982 |
| RRIRIRPPRLPRPRPRPNPFPRP | -0.502 |
| RRIRIRPPRLPRPRPRPNPLPRP | -0.0976 |
| RRIRIRPPRLPRPRPRPNRCPRP | -0.154 |
| RRIRIRPPRLPRPRPRPNRSPRP | 0.00656 |
| RRIRIRPPRLPRPRPRPNRTPRP | 0.101 |
| RRIRIRPPRLPRPRPRPNTIPRP | -0.355 |
| RRIRIRPPRLPRPRPRPNVAPRP | 0.00755 |
| RRIRIRPPRLPRPRPRPNWHPRP | -0.227 |
| RRIRIRPPRLPRPRPRPNYDPRP | -0.638 |
| RRIRIRPPRLPRPRPRPNYGPRP | 0.0426 |
| RRIRIRPPRLPRPRPRPPCIPRP | -0.0558 |
| RRIRIRPPRLPRPRPRPPDDPRP | 0.494 |
| RRIRIRPPRLPRPRPRPPEPPRP | 0.105 |
| RRIRIRPPRLPRPRPRPPESPRP | 0.185 |
| RRIRIRPPRLPRPRPRPPEVPRP | -0.173 |
| RRIRIRPPRLPRPRPRPPEWPRP | 0.0764 |
| RRIRIRPPRLPRPRPRPPGMPRP | 0.238 |
| RRIRIRPPRLPRPRPRPPGWPRP | 0.527 |
| RRIRIRPPRLPRPRPRPPHHPRP | -0.242 |
| RRIRIRPPRLPRPRPRPPHRPRP | -0.144 |
| RRIRIRPPRLPRPRPRPPKHPRP | 0.00437 |
| RRIRIRPPRLPRPRPRPPKMPRP | -0.0476 |
| RRIRIRPPRLPRPRPRPPKSPRP | -0.0284 |
| RRIRIRPPRLPRPRPRPPLFPRP | 0.0406 |

| Sequence | shrunken log2 fold change |
| --- | --- |
| RRIRIRPPRLPRPRPRPPLTPRP | -0.0194 |
| RRIRIRPPRLPRPRPRPPMGPRP | 0.0153 |
| RRIRIRPPRLPRPRPRPPMLPRP | -0.382 |
| RRIRIRPPRLPRPRPRPPMQPRP | -0.193 |
| RRIRIRPPRLPRPRPRPPNCPRP | -1.06 |
| RRIRIRPPRLPRPRPRPPNKPRP | -0.36 |
| RRIRIRPPRLPRPRPRPPQFPRP | -0.195 |
| RRIRIRPPRLPRPRPRPPRDPRP | 0.203 |
| RRIRIRPPRLPRPRPRPPRPPRP | 0.822 |
| RRIRIRPPRLPRPRPRPPRRPRP | 0.396 |
| RRIRIRPPRLPRPRPRPPRYPRP | -0.217 |
| RRIRIRPPRLPRPRPRPPSIPRP | 0.122 |
| RRIRIRPPRLPRPRPRPPTFPRP | -0.166 |
| RRIRIRPPRLPRPRPRPPTQPRP | 0.215 |
| RRIRIRPPRLPRPRPRPPVNPRP | -0.456 |
| RRIRIRPPRLPRPRPRPPVSPRP | -0.116 |
| RRIRIRPPRLPRPRPRPPVYPRP | -0.288 |
| RRIRIRPPRLPRPRPRPPWEPRP | -0.21 |
| RRIRIRPPRLPRPRPRPPWTPRP | 0.0205 |
| RRIRIRPPRLPRPRPRPQASPRP | -0.0941 |
| RRIRIRPPRLPRPRPRPQCDPRP | -0.205 |
| RRIRIRPPRLPRPRPRPQCFPRP | 0.0204 |
| RRIRIRPPRLPRPRPRPQCHPRP | -0.594 |
| RRIRIRPPRLPRPRPRPQDWPRP | -0.344 |
| RRIRIRPPRLPRPRPRPQGCPRP | -0.00156 |

— the supplement of paper PMC9112550, “Optimization of the antimicrobial peptide Bac7 by deep mutational scanning” (BMC Biology, 2022)
